# Test results taken from IntAct's records for PubMed 31515488.
# B1: Tuftelin-interacting protein 11 (Homo sapiens), Q9UBB9 (parent)
# chain: MSLSHLYRDGEGRIDDDDDERENFEITDWDLQNEFNPNRQRHWQTKEEATYGVWAERDSDDERPSFGGKRARDYSAPVNFISAGLKKGAAEEAELEDSDDEEKPVKQDDFPKDFGPRKLKTGGNFKPSQKGFAGGTKSFMDFGSWERHTKGIGQKLLQKMGYVPGRGLGKNAQGIINPIEAKQRKGKGAVGAYGSERTTQSMQDFPVVDSEEEAEEEFQKELSQWRKDPSGSKKKPKYSYKTVEELKAKGRISKKLTAPQKELSQVKVIDMTGREQKVYYSYSQISHKHNVPDDGLPLQSQQLPQSGKEAKAPGFALPELEHNLQLLIDLTEQEIIQNDRQLQYERDMVVNLFHELEKMTEVLDHEERVISNLSKVLEMVEECERRMQPDCSNPLTLDECARIFETLQDKYYEEYRMSDRVDLAVAIVYPLMKEYFKEWDPLKDCTYGTEIISKWKSLLENDQLLSHGGQDLSADAFHRLIWEVWMPFVRNIVTQWQPRNCDPMVDFLDSWVHIIPVWILDNILDQLIFPKLQKEVENWNPLTDTVPIHSWIHPWLPLMQARLEPLYSPIRSKLSSALQKWHPSDSSAKLILQPWKDVFTPGSWEAFMVKNIVPKLGMCLGELVINPHQQHMDAFYWVIDWEGMISVSSLVGLLEKHFFPKWLQVLCSWLSNSPNYEEITKWYLGWKSMFSDQVLAHPSVKDKFNEALDIMNRAVSSNVGAYMQPGARENIAYLTHTERRKDFQYEAMQERREAENMAQRGIGVAASSVPMNFKDLIETKAEEHNIVFMPVIGKRHEGKQLYTFGRIVIYIDRGVVFVQGEKTWVPTSLQSLIDMAK
# partner: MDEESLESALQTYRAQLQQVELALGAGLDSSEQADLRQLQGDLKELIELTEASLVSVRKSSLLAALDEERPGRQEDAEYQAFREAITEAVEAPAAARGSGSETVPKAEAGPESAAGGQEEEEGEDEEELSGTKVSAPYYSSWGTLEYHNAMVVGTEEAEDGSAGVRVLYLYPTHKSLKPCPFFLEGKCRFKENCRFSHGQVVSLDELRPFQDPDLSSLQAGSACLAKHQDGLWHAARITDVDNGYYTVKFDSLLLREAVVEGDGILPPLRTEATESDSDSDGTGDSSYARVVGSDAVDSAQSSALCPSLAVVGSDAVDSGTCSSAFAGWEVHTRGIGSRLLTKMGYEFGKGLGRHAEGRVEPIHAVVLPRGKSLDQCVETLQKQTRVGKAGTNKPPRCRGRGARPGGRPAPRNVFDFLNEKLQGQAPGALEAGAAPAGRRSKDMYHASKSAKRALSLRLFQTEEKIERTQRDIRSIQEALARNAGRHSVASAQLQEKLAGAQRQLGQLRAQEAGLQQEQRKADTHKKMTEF
# B2: ADP-ribosylation factor-like protein 11 (Homo sapiens), Q969Q4 (parent)
# chain: MGSVNSRGHKAEAQVVMMGLDSAGKTTLLYKLKGHQLVETLPTVGFNVEPLKAPGHVSLTLWDVGGQAPLRASWKDYLEGTDILVYVLDSTDEARLPESAAELTEVLNDPNMAGVPFLVLANKQEAPDALPLLKIRNRLSLERFQDHCWELRGCSALTGEGLPEALQSLWSLLKSRSCMCLQARAHGAERGDSKRS
# partner: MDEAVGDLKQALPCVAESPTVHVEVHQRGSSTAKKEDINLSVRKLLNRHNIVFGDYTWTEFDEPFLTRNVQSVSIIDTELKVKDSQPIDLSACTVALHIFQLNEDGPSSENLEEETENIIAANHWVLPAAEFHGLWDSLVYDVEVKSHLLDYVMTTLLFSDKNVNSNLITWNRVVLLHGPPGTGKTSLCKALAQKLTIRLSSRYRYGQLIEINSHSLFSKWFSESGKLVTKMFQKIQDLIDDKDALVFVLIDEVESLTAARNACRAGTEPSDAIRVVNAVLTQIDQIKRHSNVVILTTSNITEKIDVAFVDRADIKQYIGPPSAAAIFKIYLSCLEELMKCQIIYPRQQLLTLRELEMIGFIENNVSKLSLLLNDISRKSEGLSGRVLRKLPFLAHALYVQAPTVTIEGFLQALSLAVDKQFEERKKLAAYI
# B3: Leucine rich adaptor protein 1 (Homo sapiens), Q96LR2 (parent)
# chain: MEGTVESQTPDLRDVEGKVGRKTPEGLLRGLRGECELGTSGALLLPGASSTGHDLGDKIMALKMELAYLRAIDVKILQQLVTLNEGIEAVRWLLEERGTLTSHCSSLTSSQYSLTGGSPGRSRRGSWDSLPDTSTTDRLDSVSIGSFLDTVAPSELDEQGPPGAPRSEMDWAKVIAGGERARTEVDVAATRLGSLRAVWKPPGERLQGGPPESPEDESAKLGFEAHWFWEQCQDDVTFL
# partner: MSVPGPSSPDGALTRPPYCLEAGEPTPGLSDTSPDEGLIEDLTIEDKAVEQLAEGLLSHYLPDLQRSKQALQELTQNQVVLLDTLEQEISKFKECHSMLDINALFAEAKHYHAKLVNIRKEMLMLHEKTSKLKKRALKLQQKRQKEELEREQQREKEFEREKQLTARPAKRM
# B4: Splicing factor 45 (Homo sapiens), Q96I25 (parent)
# chain: MSLYDDLGVETSDSKTEGWSKNFKLLQSQLQVKKAALTQAKSQRTKQSTVLAPVIDLKRGGSSDDRQIVDTPPHVAAGLKDPVPSGFSAGEVLIPLADEYDPMFPNDYEKVVKRQREERQRQRELERQKEIEEREKRRKDRHEASGFARRPDPDSDEDEDYERERRKRSMGGAAIAPPTSLVEKDKELPRDFPYEEDSRPRSQSSKAAIPPPVYEEQDRPRSPTGPSNSFLANMGGTVAHKIMQKYGFREGQGLGKHEQGLSTALSVEKTSKRGGKIIVGDATEKDASKKSDSNPLTEILKCPTKVVLLRNMVGAGEVDEDLEVETKEECEKYGKVGKCVIFEIPGAPDDEAVRIFLEFERVESAIKAVVDLNGRYFGGRVVKACFYNLDKFRVLDLAEQV
# partner: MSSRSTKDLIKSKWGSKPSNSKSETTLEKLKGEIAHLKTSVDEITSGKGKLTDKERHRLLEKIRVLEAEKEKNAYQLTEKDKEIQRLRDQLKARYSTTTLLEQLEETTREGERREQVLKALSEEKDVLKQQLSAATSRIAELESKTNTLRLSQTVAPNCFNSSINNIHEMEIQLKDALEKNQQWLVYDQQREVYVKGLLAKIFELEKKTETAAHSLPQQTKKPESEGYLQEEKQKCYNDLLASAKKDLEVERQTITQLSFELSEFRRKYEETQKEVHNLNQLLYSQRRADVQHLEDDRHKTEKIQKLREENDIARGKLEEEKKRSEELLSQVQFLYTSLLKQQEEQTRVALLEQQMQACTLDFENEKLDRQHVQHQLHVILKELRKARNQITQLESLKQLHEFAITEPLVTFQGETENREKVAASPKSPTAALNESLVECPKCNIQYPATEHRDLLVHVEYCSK
# B5: Syntenin-2 (Homo sapiens), Q9H190 (parent)
# chain: MSSLYPSLEDLKVDQAIQAQVRASPKMPALPVQATAISPPPVLYPNLAELENYMGLSLSSQEVQESLLQIPEGDSTAVSGPGPGQMVAPVTGYSLGVRRAEIKPGVREIHLCKDERGKTGLRLRKVDQGLFVQLVQANTPASLVGLRFGDQLLQIDGRDCAGWSSHKAHQVVKKASGDKIVVVVRDRPFQRTVTMHKDSMGHVGFVIKKGKIVSLVKGSSAARNGLLTNHYVCEVDGQNVIGLKDKKIMEILATAGNVVTLTIIPSVIYEHMVKKLPPVLLHHTMDHSIPDA
# partner: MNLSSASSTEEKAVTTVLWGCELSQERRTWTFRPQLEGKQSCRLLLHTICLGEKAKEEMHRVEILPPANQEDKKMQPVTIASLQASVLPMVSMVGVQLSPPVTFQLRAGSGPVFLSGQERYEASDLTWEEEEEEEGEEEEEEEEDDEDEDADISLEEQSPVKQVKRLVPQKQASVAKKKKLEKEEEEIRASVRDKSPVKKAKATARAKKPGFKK
# Variants of: B1
# Conditions: with zgpat_human ZGPAT
row,Variant,effect of a mutation on the interaction
1,R8Q,with no effect

# Variants of: B2
# Conditions: with pch2_human TRIP13, Q15645
row,Variant,effect of a mutation on the interaction
1,C148R,with no effect

# Variants of: B3
# Conditions: with bl1s6_human BLOC1S6, Q9UL45
row,Variant,effect of a mutation on the interaction
1,Q207R,disrupting interaction strength
2,M60L,with no effect

# Variants of: B4
# Conditions: with cep55_human CEP55, Q53EZ4
row,Variant,effect of a mutation on the interaction
1,T224I,with no effect

# Variants of: B5
# Conditions: with npm2_human NPM2, Q86SE8
row,Variant,effect of a mutation on the interaction
1,G242R,disrupting interaction strength
2,G225R,disrupting interaction strength
